T1: GPR41 (Homo sapiens, UniProt O14843)
T1 sequence (O14843 1-346): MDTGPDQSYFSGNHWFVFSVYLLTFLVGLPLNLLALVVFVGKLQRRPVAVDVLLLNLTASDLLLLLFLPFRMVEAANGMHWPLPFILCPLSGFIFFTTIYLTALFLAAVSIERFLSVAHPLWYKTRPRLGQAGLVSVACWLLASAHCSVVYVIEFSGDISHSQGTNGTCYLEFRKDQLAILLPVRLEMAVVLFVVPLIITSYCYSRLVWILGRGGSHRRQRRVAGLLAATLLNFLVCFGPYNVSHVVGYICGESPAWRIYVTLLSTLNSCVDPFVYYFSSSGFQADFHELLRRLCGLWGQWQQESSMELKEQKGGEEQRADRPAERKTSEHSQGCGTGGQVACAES


Key:
GPR41 [1] = biological target: T1, GPR41; assay: Sodium proprionate CRC with biosensor variants in HEK293 cells stably expressing GPR41; type: cell-based; details: for Fold Response Na proprionate + FSK(1 μM): with FSK 1 μM; for Fold Response Na proprionate: without FSK, ratio of induced to uninduced signal
Description: (§1) After 24 hours, the cells were transiently transfected with one of the cAMP biosensor variants (Tables 7A and 7B). After another 24 hours, the cells were equilibrated for 2 hours at room temperature using 5 mM EF-luc in CO2 independent media with 10% FBS. Prior to the addition of the compounds, luminescence was measured. The compounds (12× stock in CO2 independent media without FBS) were then added to the cells. For GPR41 expressing cells, sodium proprionate CRC was added. […] The cells were allowed to incubate another 30 minutes and luminescence read on a Varioskan Flash. EC50 values and fold responses were calculated for each of the clones with each of the compounds with or without FSK. In addition, variants […]7 (Example VIIB), 16A2 (Example VIIB) and GS358 were also screened.

GPR41 [2] = assay: as above; type: cell-based; details: ratio of RLU of FSK treated well to untreated well
Description: as §1

Molecule | Fold Response Na proprionate + FSK(1 μM) (GPR41 [1]) | Fold Response Na proprionate (GPR41 [1]) | Fold Signal Change (GPR41 [2])
L9-I: L9 background with Luc2.0 F369I; SEQ ID NO:92, 93 (protein) MPGAVGKVVPFIEAKVVDLDTGKTLGVNQRGELCVRGPMIMSGYVNNPEATNALIDKDGWLHSGDIAYWDEDEHFFIVDRLKSLIKYKGYQVAPAELESILLQHPNIFDAGVAGLPDDDAGELPAAVVVLEHGKTMTEKEIVDYVASQVTTAKKLRGGVVFVDEVPKGLTGKLDARKIREILIKAKKGSIAGCGDAGEGMYESFIESLPFLKSLEFSARLKVVDVIGTKVYNDGEQIIAQGDSADSFFIIESGEVKITMKRKGKSEVEENGAVEIARCSRGQYFGELALVTNKPRAASAHAIGTVKCLAMDVQAFERLLGPCMEIMKRNIATYEEQLVALFGTNMDIVAKNIKKGPAPFYPLEDGTAGEQLHKAMKRYALVPGTIAFTDAHIEVDITYAEYFEMSVRLAEAMKRYGLNTNHRIVVCSENSLQFFMPVLGALFIGVAVAPANDIYNERELLNSMGISQPTVVFVSKKGLQKILNVQKKLPIIQKIIIMDSKTDYQGFQSMYTFVTSHLPPGFNEYDFVPESFDRDKTIALIMNSSGSTGLPKGVALPHRTACVRFSHARDPIFGNQIIPDTAILSVVPFHHGFGMFTTLGYLICGFRVVLMYRFEEELFLRSLQDYKIQSALLVPTLFSFFAKSTLIDKYDLSNLHEIASGGAPLSKEVGEAVAKRFHLPGIRQGYGLTETTSAILITPEGV | 3.83 fold | 3.61 fold | 83.5 fold
L9-Q: L9 background with Luc2.0 K541Q; SEQ ID NO:96, 97 (protein) MPGAVGKVVPFFEAKVVDLDTGKTLGVNQRGELCVRGPMIMSGYVNNPEATNALIDKDGWLHSGDIAYWDEDEHFFIVDRLKSLIKYKGYQVAPAELESILLQHPNIFDAGVAGLPDDDAGELPAAVVVLEHGKTMTEKEIVDYVASQVTTAKKLRGGVVFVDEVPKGLTGKLDARKIREILIQAKKGSIAGCGDAGEGMYESFIESLPFLKSLEFSARLKVVDVIGTKVYNDGEQIIAQGDSADSFFIIESGEVKITMKRKGKSEVEENGAVEIARCSRGQYFGELALVTNKPRAASAHAIGTVKCLAMDVQAFERLLGPCMEIMKRNIATYEEQLVALFGTNMDIVAKNIKKGPAPFYPLEDGTAGEQLHKAMKRYALVPGTIAFTDAHIEVDITYAEYFEMSVRLAEAMKRYGLNTNHRIVVCSENSLQFFMPVLGALFIGVAVAPANDIYNERELLNSMGISQPTVVFVSKKGLQKILNVQKKLPIIQKIIIMDSKTDYQGFQSMYTFVTSHLPPGFNEYDFVPESFDRDKTIALIMNSSGSTGLPKGVALPHRTACVRFSHARDPIFGNQIIPDTAILSVVPFHHGFGMFTTLGYLICGFRVVLMYRFEEELFLRSLQDYKIQSALLVPTLFSFFAKSTLIDKYDLSNLHEIASGGAPLSKEVGEAVAKRFHLPGIRQGYGLTETTSAILITPEGV | 5.24 fold | 2.57 fold | 42.0 fold
L9-IL: L9 background with Luc2.0 F369I, F518L; SEQ ID NO:84, 85 (protein) MPGAVGKVVPFIEAKVVDLDTGKTLGVNQRGELCVRGPMIMSGYVNNPEATNALIDKDGWLHSGDIAYWDEDEHFFIVDRLKSLIKYKGYQVAPAELESILLQHPNIFDAGVAGLPDDDAGELPAAVVVLEHGKTMTEKEIVDYVASQVTTAKKLRGGVVLVDEVPKGLTGKLDARKIREILIKAKKGSIAGCGDAGEGMYESFIESLPFLKSLEFSARLKVVDVIGTKVYNDGEQIIAQGDSADSFFIIESGEVKITMKRKGKSEVEENGAVEIARCSRGQYFGELALVTNKPRAASAHAIGTVKCLAMDVQAFERLLGPCMEIMKRNIATYEEQLVALFGTNMDIVAKNIKKGPAPFYPLEDGTAGEQLHKAMKRYALVPGTIAFTDAHIEVDITYAEYFEMSVRLAEAMKRYGLNTNHRIVVCSENSLQFFMPVLGALFIGVAVAPANDIYNERELLNSMGISQPTVVFVSKKGLQKILNVQKKLPIIQKIIIMDSKTDYQGFQSMYTFVTSHLPPGFNEYDFVPESFDRDKTIALIMNSSGSTGLPKGVALPHRTACVRFSHARDPIFGNQIIPDTAILSVVPFHHGFGMFTTLGYLICGFRVVLMYRFEEELFLRSLQDYKIQSALLVPTLFSFFAKSTLIDKYDLSNLHEIASGGAPLSKEVGEAVAKRFHLPGIRQGYGLTETTSAILITPEGV | 7.43 fold | 3.67 fold | 96.7 fold
L9-IQ: L9 background with Luc2.0 F369I, K541Q; SEQ ID NO:74, 75 (protein) MPGAVGKVVPFIEAKVVDLDTGKTLGVNQRGELCVRGPMIMSGYVNNPEATNALIDKDGWLHSGDIAYWDEDEHFFIVDRLKSLIKYKGYQVAPAELESILLQHPNIFDAGVAGLPDDDAGELPAAVVVLEHGKTMTEKEIVDYVASQVTTAKKLRGGVVFVDEVPKGLTGKLDARKIREILIQAKKGSIAGCGDAGEGMYESFIESLPFLKSLEFSARLKVVDVIGTKVYNDGEQIIAQGDSADSFFIIESGEVKITMKRKGKSEVEENGAVEIARCSRGQYFGELALVTNKPRAASAHAIGTVKCLAMDVQAFERLLGPCMEIMKRNIATYEEQLVALFGTNMDIVAKNIKKGPAPFYPLEDGTAGEQLHKAMKRYALVPGTIAFTDAHIEVDITYAEYFEMSVRLAEAMKRYGLNTNHRIVVCSENSLQFFMPVLGALFIGVAVAPANDIYNERELLNSMGISQPTVVFVSKKGLQKILNVQKKLPIIQKIIIMDSKTDYQGFQSMYTFVTSHLPPGFNEYDFVPESFDRDKTIALIMNSSGSTGLPKGVALPHRTACVRFSHARDPIFGNQIIPDTAILSVVPFHHGFGMFTTLGYLICGFRVVLMYRFEEELFLRSLQDYKIQSALLVPTLFSFFAKSTLIDKYDLSNLHEIASGGAPLSKEVGEAVAKRFHLPGIRQGYGLTETTSAILITPEGV | 5.17 fold | 3.41 fold | 64.0 fold
L9-ILQ: L9 background with Luc2.0 F369I, F518L, K541Q; SEQ ID NO:86, 87 (protein) MPGAVGKVVPFIEAKVVDLDTGKTLGVNQRGELCVRGPMIMSGYVNNPEATNALIDKDGWLHSGDIAYWDEDEHFFIVDRLKSLIKYKGYQVAPAELESILLQHPNIFDAGVAGLPDDDAGELPAAVVVLEHGKTMTEKEIVDYVASQVTTAKKLRGGVVLVDEVPKGLTGKLDARKIREILIQAKKGSIAGCGDAGEGMYESFIESLPFLKSLEFSARLKVVDVIGTKVYNDGEQIIAQGDSADSFFIIESGEVKITMKRKGKSEVEENGAVEIARCSRGQYFGELALVTNKPRAASAHAIGTVKCLAMDVQAFERLLGPCMEIMKRNIATYEEQLVALFGTNMDIVAKNIKKGPAPFYPLEDGTAGEQLHKAMKRYALVPGTIAFTDAHIEVDITYAEYFEMSVRLAEAMKRYGLNTNHRIVVCSENSLQFFMPVLGALFIGVAVAPANDIYNERELLNSMGISQPTVVFVSKKGLQKILNVQKKLPIIQKIIIMDSKTDYQGFQSMYTFVTSHLPPGFNEYDFVPESFDRDKTIALIMNSSGSTGLPKGVALPHRTACVRFSHARDPIFGNQIIPDTAILSVVPFHHGFGMFTTLGYLICGFRVVLMYRFEEELFLRSLQDYKIQSALLVPTLFSFFAKSTLIDKYDLSNLHEIASGGAPLSKEVGEAVAKRFHLPGIRQGYGLTETTSAILITPEGV | 10.21 fold | 4.13 fold | 140.4 fold
L9-Y: L9 background with RIIβB F407Y; SEQ ID NO:98, 99 (protein) MPGAVGKVVPFFEAKVVDLDTGKTLGVNQRGELCVRGPMIMSGYVNNPEATNALIDKDGWLHSGDIAYWDEDEHFFIVDRLKSLIKYKGYQVAPAELESILLQHPNIFDAGVAGLPDDDAGELPAAVVVLEHGKTMTEKEIVDYVASQVTTAKKLRGGVVFVDEVPKGLTGKLDARKIREILIKAKKGSIAGCGDAGEGMYESFIESLPFLKSLEFSARLKVVDVIGTKVYNDGEQIIAQGDSADSFFIIESGEVKITMKRKGKSEVEENGAVEIARCSRGQYFGELALVTNKPRAASAHAIGTVKCLAMDVQAFERLLGPCMEIMKRNIATYEEQLVALYGTNMDIVAKNIKKGPAPFYPLEDGTAGEQLHKAMKRYALVPGTIAFTDAHIEVDITYAEYFEMSVRLAEAMKRYGLNTNHRIVVCSENSLQFFMPVLGALFIGVAVAPANDIYNERELLNSMGISQPTVVFVSKKGLQKILNVQKKLPIIQKIIIMDSKTDYQGFQSMYTFVTSHLPPGFNEYDFVPESFDRDKTIALIMNSSGSTGLPKGVALPHRTACVRFSHARDPIFGNQIIPDTAILSVVPFHHGFGMFTTLGYLICGFRVVLMYRFEEELFLRSLQDYKIQSALLVPTLFSFFAKSTLIDKYDLSNLHEIASGGAPLSKEVGEAVAKRFHLPGIRQGYGLTETTSAILITPEGV | 3.88 fold | 2.17 fold | 55.8 fold
